Reference: patent US5082772A, “Process for preparing deacetylcephalosporin C” (priority 1988, dated 1992)
Several values for one entry are separate records, joined by “and”; a condition that tells them apart may be missing. Equal entries are not always repeated.

How the values were obtained:
[1] = Stability (half-life) of native enzyme; format: physicochemical, Streptomyces clavuligerus
Description: The purified native enzyme obtained from cell-free extracts of S. clavuligerus can be partially stabilized by phenylmethylsulfonyl fluoride and ethanol.

[2] = molecular target: T1, recombinantly produced DAOC synthase (Streptomyces clavuligerus, UniProt P18548); experiment: Kinetics of recombinant enzyme (Lineweaver-Burk); format: biochemical; conditions: pH 7.0, 50 mM HEPES buffer, 36° C.
T1 construct: made in house; host or cells: Escherichia coli K12 JM109 (plasmid pOW382)
Procedure: The kinetics of the native enzyme and recombinant enzyme were determined under the optimal reaction conditions for the enzyme, i.e., at pH 7.0 in 50 mM HEPES buffer at 36° C.

[3] = Isoelectric points of purified enzyme; format: physicochemical, Streptomyces clavuligerus; conditions: two distinct points

B1: purified native enzyme: DAOC synthase obtained from cell-free extracts of S. clavuligerus (protein, UniProt P18548 1-311, looked up)
Deacetoxycephalosporin C …: MDTTVPTFSLAELQQGLHQDEFRRCLRDKGLFYLTDCGLTDTELKSAKDLVIDFFEHGSEAEKRAVTSPVPTMRRGFTGLESESTAQITNTGSYSDYSMCYSMGTADNLFPSGDFERIWTQYFDRQYTASRAVAREVLRATGTEPDGGVEAFLDCEPLLRFRYFPQVPEHRSAEEQPLRMAPHYDLSMVTLIQQTPCANGFVSLQAEVGGAFTDLPYRPDAVLVFCGAIATLVTGGQVKAPRHHVAAPRRDQIAGSSRTSSVFFLRPNADFTFSVPLARECGFDVSLDGETATFQDWIGGNYVNIRRTSKA
[1]; not stabilized
  half-life: 20 h
[1]; stabilized by phenylmethylsulfonyl fluoride and ethanol
  half-life: 48 h

B2: recombinant synthase: S. clavuligerus DAOC synthase (expandase) produced in recombinant E. coli and purified (protein, UniProt P18548 1-311, looked up)
Deacetoxycephalosporin C …: B1 Deacetoxycephalosporin C …
modifications: recombinant, expressed in E. coli
notes: S. clavuligerus DAOC synthase (expandase) produced in recombinant E. coli and purified
[2]
  Vmax: 0.432 μmol DAOC formed/min/mg protein

B3: purified enzyme: purified deacetoxycephalosporin C synthase of S. clavuligerus (protein, UniProt P18548 1-311, looked up)
Deacetoxycephalosporin C …: B1 Deacetoxycephalosporin C …
[3]
  isoelectric points: 5.3±0.2 and 6.1±0.2
